Assay results taken from patent US10556007B2, “Antibody which binds Lrg1 and methods of use” (UCL Business PLC, priority 2015, dated 2020).
“And” between values parts separate entries of the source, which are not always exact repeats. Equal entries are not always repeated. “Also recorded” adds a separate entry of the source.

Tests used:
[1] = test system: explanted E16.5 mouse metatarsals; assay: Mouse metatarsal angiogenesis assay (ex vivo); assay type: cell-based; conditions: mAbs at 100 nM, 12 days of culture
Description: In this assay the function-blocking activity of the mAbs was tested, using explanted E16.5 mouse metatarsals. Vessels grow spontaneously from the embryonic bones to form a 2D-network that can be readily quantified with regard to, for example, vessel length, calibre and branch points. In the mouse metatarsal assay mAbs were added at 100 nM to the culture medium during 12 days of culture, with replenishment of media and mAbs every two days. At the end of the experiment samples were fixed and immunostained for Platelet endothelial cell adhesion molecule (PECAM), and vascular networks were quantified using Imaris software, with normalization to a phosphate buffered saline (PBS) control.

[2] = test system: HUVEC co-cultured with human fibroblasts; assay: HUVEC co-culture model of angiogenesis; assay type: cell-based; conditions: 14 days co-culture, 10-200 nM
Description: Antibodies 4H2, 15C4 and 3A11 were tested to see if they elicited an inhibition of vessel growth in the co-culture model of angiogenesis. HUVEC were co-cultured with human fibroblasts for 14 days, and then fixed and immunostained with an antibody against PECAM. Avastin was included as a positive control, and all four mAbs were tested at 10, 25, 50, 100 and 200 nM. There were two important observations from this experiment.

human Lrg1 = target: T1, human Lrg1 (Homo sapiens, UniProt P02750); assay: Biacore affinity and binding kinetics, human Lrg1
T1 sequence (P02750 36-347): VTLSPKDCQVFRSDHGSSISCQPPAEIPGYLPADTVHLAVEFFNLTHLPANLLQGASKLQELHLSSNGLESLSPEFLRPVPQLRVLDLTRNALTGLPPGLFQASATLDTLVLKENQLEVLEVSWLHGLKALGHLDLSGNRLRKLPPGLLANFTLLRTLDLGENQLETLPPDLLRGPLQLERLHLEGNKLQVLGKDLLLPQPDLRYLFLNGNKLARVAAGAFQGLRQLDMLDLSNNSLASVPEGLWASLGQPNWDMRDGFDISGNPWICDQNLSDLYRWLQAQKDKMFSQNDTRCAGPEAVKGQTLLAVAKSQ
Description: Biacore was used to measure the binding affinity, association and dissociation constants of the antibodies to human Lrg1. Human Lrg1 was immobilized on the Biacore chip, and mAbs passed across at concentrations ranging from 20-100 nM. A cut off binding affinity value of 2 nM was used to isolate possible candidate antibodies for further investigation.
The four lead mAbs were examined using Biacore, in experiments in which human Lrg1 was immobilized on the chip, and mAbs passed across at concentrations ranging from 20-100 nM. The Table below summarises the kinetic data.

[3] = test system: laser-induced choroidal neovascularisation; assay: Mouse model of laser-induced CNV; assay type: in vivo; conditions: intraocular injection at lasering, FFA after 7 days
Description: The images on the left of FIG. 17A show a typical wild-type mouse retina under normal illumination (Fundus), and under fluorescence illumination, 7 days after three laser burns were administered to the retinal pigment epithelium. Fluorescence images were captured ˜60 seconds after systemic dosing with fluorescein (Early Phase FFA) and again after ˜7 minutes (Late Phase FFA). At the time of lasering, animals received intraocular injections of either control IgG (top panels) or 15C4 (lower panels). The Early Phase FFA images show the size of the lesions, and the Late Phase images show leakage of fluorescein into the retina. Lesion sizes were quantified for 15C4 at 2.5, 5 and 10 μg doses, and also Eylea at 2 and 4 μg, and the % blocking is a measure of average lesion size relative to that observed in the controls. On the far right a similar analysis was undertaken using Eylea and Magacizumab (both at 2.1 μg) alone and in combination.
Wild type C57B6 mice were anaesthetized and received intravitreal injections of various doses of either Magacizumab, Eylea, or both in combination, immediately following laser photocoagulation of the retinal pigment epithelium. After 7 days (to allow the vascular lesions to form) the mice were again anaesthetized and examined by fluorescein angiography (FFA). Early phase FFA images (taken after 90 s) show the degree of vascularization at the lesion site. Measurement of the lesion area in the early phase images permits quantification in which percentage lesion size is normalized against the IgG4 control (FIG. 18).

[4] = target: T2, Lrg1 (overlapping 15-mer peptides and full length) (Homo sapiens, UniProt P02750); assay: Epitope mapping on ProArray Ultra peptide microarray; assay type: binding
T2 sequence (P02750 36-347): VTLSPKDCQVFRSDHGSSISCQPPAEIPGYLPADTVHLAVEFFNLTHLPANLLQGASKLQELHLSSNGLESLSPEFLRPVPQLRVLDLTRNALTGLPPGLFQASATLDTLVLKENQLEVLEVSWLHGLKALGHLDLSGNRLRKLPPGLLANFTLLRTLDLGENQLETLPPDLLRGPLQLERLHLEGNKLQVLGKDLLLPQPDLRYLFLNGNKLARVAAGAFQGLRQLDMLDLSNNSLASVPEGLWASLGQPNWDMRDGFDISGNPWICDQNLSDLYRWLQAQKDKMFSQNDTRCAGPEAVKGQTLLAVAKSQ
Description: The determination of peptide-antibody binding was performed by incubation of serum or antibody samples with a ProArray Ultra® peptide microarray, followed by incubation with a fluorescent-labelled secondary antibody.
All peptides were synthesized separately, and then bound to the ProArray Ultra® slide surface using Prolmmune's proprietary technology. This optimised process ensured that peptides were presented on the array in such a manner as to closely mimic the properties of the corresponding protein region, circumventing the inherent physiochemical variation of the free peptides themselves and making a compatible, combined peptide and protein array platform. The test analytes (peptides or proteins) were dispensed onto the ProArray Ultra® slide in discrete spots and appropriate gal-files enabled exact alignment of the resulting array features back to the analyte deposited.
ProArray Ultra® slides were blocked using a validated blocking buffer to reduce non-specific binding of the sera. […] After several washing steps, the ProArray Ultra® arrays were dried and scanned using a high-resolution fluorescence microarray scanning system. […]
ProArray Ultra® slides containing the immobilised peptides were incubated with the antibody samples. […] The murine IgG positive controls were detected in all samples. […]

B16/F0 tumours = assay: B16/F0 subcutaneous tumour vasculature; assay type: in vivo, mouse
Description: The adherent cell line B16/F0 was harvested and single-cell suspensions of 1×10^6 cells in 100 μl PBS was injected subcutaneously into the lower back of C57B1/6 mice. Tumours were measured every other day with a caliper and volume was calculated using the formula: V=(4/3)×π×(L/2)×(W/2)×(H/2). The mice were sacrificed at defined time intervals or after the tumors reached 2000 mm^3. Treatment with 15C4 or IgG was started after three days at 50 mg/kg by intraperitoneal injections, and repeated every 3 days. Vessels were identified by CD31 immunohistochemistry on tumour sections (FIG. 11).

LL/2 tumours = assay: LL/2 tumour vasculature; assay type: in vivo, mouse; conditions: wild type mice, 50 mg per kg
Description: B16/F0 and LL/2 […] tumour cell lines were grafted into wild type and Lrg1 knockout mice.

Ka (human Lrg1; human Lrg1 immobilized on chip, mAbs at 20-100 nM): 1.10E+05 | dissociation rate constant (kd) (human Lrg1; rate constant column beside Ka, human Lrg1 immobilized on chip, mAbs at 20-100 nM): 1.40E−07 | Kd (human Lrg1; text summary of Biacore data, read-out: binding affinities for human Lrg1): 1.2 pM | binding to full length Lrg1 on array [4]: binder at all dilutions
B1: 15C4: mouse monoclonal antibody against human Lrg1, VH SEQ ID NO: 1, VL SEQ ID NO: 2 (antibody, V domains shown)
VH: QVQLQQSGDEVVRPGSSVKISCKASGYTFSGYWMNWVKQRPGQGLQWIGQIYPGDGDTNYNGKFKGKATLTADKSSSTAYMQLSTLTSEDSAIYFCARSITTVVLDYWGQGTTLTVSS
VL: DIVLTQSPVSLAVSLGQRATISCRASQSVSTSGYSFMHWYQQKPGQPPKFLIKYASNLESGVPARFSGSGSGTDFTLNIHPVEEEDTATYYCQHSWEMPLTFGAGTKLELK
modifications: 15C4 Variable Heavy Chain; 15C4 Variable light chain
inhibition of angiogenesis (in words) [1]: inhibited angiogenesis | inhibition of angiogenesis ([1]; normalised to PBS control, 0.1 µM): ~40% and > 25% | inhibition of vessel growth [2]: equally effective | affinity for human Lrg1 (in words) (human Lrg1; Biacore): affinity in the picomolar range; also recorded: bound with especially high affinity; also recorded: very high affinity; also recorded: much higher affinity for human Lrg1 | lesion formation [3]: inhibited lesion formation; also recorded: inhibit lesion formation with similar efficacy to the VEGF blocker Eylea | endothelial and pericyte co-localisation (B16/F0 tumours; C57BL6 mice, CD31 with αSMA or NG2, vs IgG): increases endothelial and pericyte co-localisation | small vessels / distribution of vessel sizes (CD31) (B16/F0 tumours; C57Bl/6 mice, 50 mg/kg IP every 3 days, vs IgG controls): Fewer small vessels | replication of Lrg1 knockout tumour vessel phenotype (B16/F0 tumours; wild type mice, 50 mg per kg): drives normalisation of tumour vessels; also recorded: These results were mimicked; also recorded: blood vessels are more functional and mature | replication of Lrg1 knockout tumour vessel phenotype (LL/2 tumours): These results were mimicked
